Results from PMC5736220, “Using thermal scanning assays to test protein-protein interactions of inner-ear cadherins” (PLoS ONE, 2017).

Tests used:
Settings in all cases: both partners purified
[1] = biological target: T1, protocadherin-15 EC1+2, wild type, His-tagged (mouse, UniProt Q99PJ1 27-259); experiment: SEC; analytical, Superdex 75 3.2/3.0, SEC buffer, 4°C, 100 μL loop, 0.05 mL/min; complex read from a decrease in elution volume of the mixture
T1 construct: Protocadherin-15 (PCDH15), mouse, N-terminal fragment EC1+2; pET21a, NdeI/XhoI; predicted molecular weight 27.5 kDa; Held on the Ni-NTA chip by its His tag in SPR; also called pcdh15; pcdh15(WT); not shown: His6, C-terminal, kept

[2] = biological target: T2, protocadherin-15 EC1+2 Q165L, His-tagged (mouse, UniProt Q99PJ1 27-259, Q165L); experiment: SPR; Biacore T100, Ni-NTA chip, 6xHis pcdh15 immobilised, tag-free cdh23 0.25 to 30 μM injected, 25°C, SEC buffer; KD from binding isotherms (Biacore T100 evaluation software)
T2 construct: Protocadherin-15 (PCDH15), mouse, N-terminal fragment EC1+2; Mutant of m12 made with QuikChange; Held on the Ni-NTA chip by its His tag in SPR; also called pcdh15(Q165L); not shown: His6, C-terminal, kept

[3] = biological target: T1, protocadherin-15 EC1+2, wild type, …; experiment: as above
[4] = biological target: T3, protocadherin-15 EC1+2 G16D, His-tagged (mouse, UniProt Q99PJ1 27-259, G16D); experiment: as above
T3 construct: Protocadherin-15 (PCDH15), mouse, N-terminal fragment EC1+2; Mutant of m12 made with QuikChange; Held on the Ni-NTA chip by its His tag in SPR; also called pcdh15(G16D); not shown: His6, C-terminal, kept

[5] = biological target: T2, protocadherin-15 EC1+2 Q165L, His-tagged; experiment: SPR; Biacore T100, Ni-NTA chip, 6xHis pcdh15 immobilised, tag-free cdh23 0.25 to 30 μM injected, 25°C, SEC buffer; global kinetic fit with EVILFIT (distribution model)
[6] = biological target: T1, protocadherin-15 EC1+2, wild type, …; experiment: as above
[7] = biological target: T3, protocadherin-15 EC1+2 G16D, His-tagged; experiment: as above

binding result [1] | Kd [2] | Kd [3] | Kd [4] | Kd [5] | koff [5] | kon [5] | Kd [6] | koff [6] | kon [6] | Kd [7] | koff [7] | kon [7] | Binder
binds | – | – | – | – | – | – | – | – | – | – | – | – | cadherin-23 EC1+2 T190W, His-tagged (domain or fragment, mouse, Cadherin-23 (CDH23), mouse, N-terminal fragment EC1+2; Mutant of m1 made with QuikChange; also called cdh23(T190W)) QVNRLPFFTNHFFDTYLLISEDTPVGSSVTQLLARDMDNDPLVFGVSGEEASRFFAVEPDTGVVWLRQPLDRETKSEFTVEFSVSDHQGVITRKVNIQVGDVNDNAPTFHNQPYSVRIPENTPVGTPIFIVNATDPDLGAGGSVLYSFQPPSPFFAIDSARGIVTVIQELDYEVTQAYQLTVNATDQDKWRPLSTLANLAIIITD
– | 2600 nM | 1380 ± 360 nM | 1110 ± 70 nM | 3.94 ± 1.11 µM | 0.22 ± 0.04 s⁻¹ | 55900 M⁻¹ s⁻¹ | 3.72 ± 1.65 µM | 0.2 ± 0.04 s⁻¹ | 61900 M⁻¹ s⁻¹ | 2000 ± 990 nM | 0.17 ± 0.01 s⁻¹ | 94800 M⁻¹ s⁻¹ | cadherin-23 EC1+2 (residues 1-205), wild type, tagless (domain or fragment, mouse, an Ala residue included between CDH23 EC2 and the intein tag to improve cleavage efficiency; pTXB1, NdeI/SapI; That the added Ala stays on the C-terminus after thiol-induced cleavage, and that a start Met precedes residue 1, are surmised; also called tag-free cdh23; tagless cdh23) QVNRLPFFTNHFFDTYLLISEDTPVGSSVTQLLARDMDNDPLVFGVSGEEASRFFAVEPDTGVVWLRQPLDRETKSEFTVEFSVSDHQGVITRKVNIQVGDVNDNAPTFHNQPYSVRIPENTPVGTPIFIVNATDPDLGAGGSVLYSFQPPSPFFAIDSARGIVTVIQELDYEVTQAYQLTVNATDQDKTRPLSTLANLAIIITDA
